Key:
[1] = Tissue biodistribution in 22Rv1 tumor mouse model; design: species or system mice; conditions: male, nude, in vivo, iv, total radioactivity
Text: (§1) LnCAP and 22RV1 CDX xenograft tumor models were generated by inoculating 5×10^6 cells/site subcutaneously in male SCID or nude mice (Vital River), respectively. Animals were housed according to IACUC guidance and had accessed to food and water ad libitium. Animals were used for biodistribution study when the tumor dimensions reached around 0.2-0.3 cm^3. […] At each tome point, animals were sacrificed and tissues were collected, weighted, and subjected to radioactivity measurements using gamma counter. Radioactivity in the tissues was presented in % ID/g (percent of injected dose per gram).

[2] = Tissue biodistribution in LnCAP tumor mouse model; design: species or system mice; conditions: male, SCID, in vivo, iv, total radioactivity
Text: as §1

[3] = Tissue biodistribution: Salivary Gland

## O=C(O)CCC[C@H](NC(=O)N[C@@H](CCCCNC(=O)[C@H](Cc1c2ccccc2cc2ccccc12)Nc1c(NC23CCC(c4nnc(CN5CCN(CC(=O)O)CCN(CC(=O)O)CCN(CC(=O)O)CC5)o4)(CC2)CC3)c(=O)c1=O)C(=O)O)C(=O)O [[^177Lu]Lu-E7, metal not drawn]
[1]
  tissue uptake dose at 2 h: 5.17 ± 0.12 %ID
  tissue uptake dose at 6 h: 1.71 ± 0.03 %ID
  tissue uptake dose at 24 h: 1.36 ± 0.04 %ID
  tissue uptake dose at 72 h: 1.29 ± 0.06 %ID
  tissue uptake dose at 168 h: 0.23 ± 0.02 %ID
[1]; Tissue biodistribution: Blood
  tissue uptake at 2 h: 0.23 ± 0.05 %ID/g
  tissue uptake at 6 h: 0.04 %ID/g
  tissue uptake at 24 h: 0.02 %ID/g
  tissue uptake at 72 h: 0.02 %ID/g
  tissue uptake at 168 h: 0.02 ± 0.01 %ID/g
[1]; Tissue biodistribution: Bone
  tissue uptake at 2 h: 0.3 ± 0.02 %ID/g
  tissue uptake at 6 h: 0.28 ± 0.05 %ID/g
  tissue uptake at 24 h: 0.26 ± 0.03 %ID/g
  tissue uptake at 72 h: 0.26 ± 0.06 %ID/g
  tissue uptake at 168 h: 0.29 ± 0.1 %ID/g
[1]; Tissue biodistribution: Heart
  tissue uptake at 2 h: 0.15 ± 0.02 %ID/g
  tissue uptake at 6 h: 0.06 ± 0.01 %ID/g
  tissue uptake at 24 h: 0.05 %ID/g
  tissue uptake at 72 h: 0.05 ± 0.01 %ID/g
  tissue uptake at 168 h: 0.07 ± 0.01 %ID/g
[1]; Tissue biodistribution: Kidney
  tissue uptake at 2 h: 15.2 ± 5.3 %ID/g
  tissue uptake at 6 h: 8.27 ± 2.15 %ID/g
  tissue uptake at 24 h: 6.73 ± 0.66 %ID/g
  tissue uptake at 72 h: 2.88 ± 1.02 %ID/g
  tissue uptake at 168 h: 0.95 ± 0.16 %ID/g
[1]; Tissue biodistribution: Liver
  tissue uptake at 2 h: 0.18 ± 0.02 %ID/g
  tissue uptake at 6 h: 0.11 ± 0.01 %ID/g
  tissue uptake at 24 h: 0.11 ± 0.01 %ID/g
  tissue uptake at 72 h: 0.12 ± 0.02 %ID/g
  tissue uptake at 168 h: 0.11 ± 0.02 %ID/g
[1]; Tissue biodistribution: Lung
  tissue uptake at 2 h: 0.41 ± 0.08 %ID/g
  tissue uptake at 6 h: 0.12 ± 0.02 %ID/g
  tissue uptake at 24 h: 0.1 %ID/g
  tissue uptake at 72 h: 0.07 ± 0.01 %ID/g
  tissue uptake at 168 h: 0.06 ± 0.01 %ID/g
[1]; Tissue biodistribution: Muscle
  tissue uptake at 2 h: 0.1 ± 0.02 %ID/g
  tissue uptake at 6 h: 0.04 ± 0.02 %ID/g
  tissue uptake at 24 h: 0.02 %ID/g
  tissue uptake at 72 h: 0.02 %ID/g
  tissue uptake at 168 h: 0.02 %ID/g
[1]; [3]
  tissue uptake at 2 h: 0.16 ± 0.01 %ID/g
  tissue uptake at 6 h: 0.07 ± 0.01 %ID/g
  tissue uptake at 24 h: 0.08 %ID/g
  tissue uptake at 72 h: 0.06 ± 0.01 %ID/g
  tissue uptake at 168 h: 0.06 ± 0.02 %ID/g
[1]; Tissue biodistribution: Spleen
  tissue uptake at 2 h: 0.29 ± 0.03 %ID/g
  tissue uptake at 6 h: 0.12 ± 0.03 %ID/g
  tissue uptake at 24 h: 0.13 %ID/g
  tissue uptake at 72 h: 0.12 ± 0.01 %ID/g
  tissue uptake at 168 h: 0.15 ± 0.02 %ID/g
[1]; Tissue biodistribution: Tumor
  tissue uptake at 2 h: 15.6 ± 4.67 %ID/g
  tissue uptake at 6 h: 15.6 ± 2.01 %ID/g
  tissue uptake at 24 h: 17.9 ± 0.87 %ID/g
  tissue uptake at 72 h: 12.1 ± 1.94 %ID/g
  tissue uptake at 168 h: 4.04 ± 0.66 %ID/g
[1]; Tumor/Blood
  tissue to tissue ratio at 2 h: 70.2 ± 30
  tissue to tissue ratio at 6 h: 425 ± 28
  tissue to tissue ratio at 24 h: 848 ± 107
  tissue to tissue ratio at 72 h: 737 ± 174
  tissue to tissue ratio at 168 h: 345 ± 220
[1]; Tumor/Bone
  tissue to tissue ratio at 2 h: 52.9 ± 18.6
  tissue to tissue ratio at 6 h: 57.4 ± 17.9
  tissue to tissue ratio at 24 h: 70 ± 5.18
  tissue to tissue ratio at 72 h: 47.8 ± 16.4
  tissue to tissue ratio at 168 h: 15.6 ± 6.16
[1]; Tumor/Kidney
  tissue to tissue ratio at 2 h: 1.05 ± 0.32
  tissue to tissue ratio at 6 h: 1.99 ± 0.69
  tissue to tissue ratio at 24 h: 2.67 ± 0.15
  tissue to tissue ratio at 72 h: 4.48 ± 1.26
  tissue to tissue ratio at 168 h: 4.23 ± 0.07

## O=C(O)CC[C@H](NC(=O)N[C@@H](CCCCNC(=O)[C@H](Cc1ccc2ccccc2c1)NC(=O)[C@H]1CC[C@H](CNC(=O)CN2CCN(CC(=O)O)CCN(CC(=O)O)CCN(CC(=O)O)CC2)CC1)C(=O)O)C(=O)O [[^177Lu]Lu-PSMA-617, metal not drawn, reference compound]
[1]
  tissue uptake dose at 2 h: 4.15 ± 0.06 %ID
  tissue uptake dose at 24 h: 1.21 ± 0.03 %ID
[1]; Tissue biodistribution: Blood
  tissue uptake at 2 h: 0.08 ± 0.03 %ID/g
  tissue uptake at 6 h: 0.03 ± 0.01 %ID/g
[1]; Tissue biodistribution: Bone
  tissue uptake at 24 h: 0.11 ± 0.03 %ID/g
[1]; Tissue biodistribution: Heart
  tissue uptake at 2 h: 0.1 ± 0.02 %ID/g
  tissue uptake at 6 h: 0.06 ± 0.01 %ID/g
  tissue uptake at 24 h: 0.05 ± 0.01 %ID/g
  tissue uptake at 72 h: 0.05 ± 0.01 %ID/g
  tissue uptake at 168 h: 0.06 ± 0.01 %ID/g
[1]; Tissue biodistribution: Kidney
  tissue uptake at 2 h: 53 ± 27.4 %ID/g
  tissue uptake at 6 h: 12.3 ± 6.38 %ID/g
  tissue uptake at 24 h: 1.35 ± 0.48 %ID/g
  tissue uptake at 168 h: 0.08 ± 0.03 %ID/g
[1]; Tissue biodistribution: Liver
  tissue uptake at 2 h: 0.09 ± 0.02 %ID/g
  tissue uptake at 6 h: 0.08 ± 0.02 %ID/g
  tissue uptake at 24 h: 0.05 ± 0.01 %ID/g
  tissue uptake at 72 h: 0.04 ± 0.01 %ID/g
  tissue uptake at 168 h: 0.03 ± 0.01 %ID/g
[1]; Tissue biodistribution: Lung
  tissue uptake at 2 h: 0.29 ± 0.05 %ID/g
  tissue uptake at 24 h: 0.06 ± 0.01 %ID/g
  tissue uptake at 72 h: 0.05 ± 0.01 %ID/g
  tissue uptake at 168 h: 0.05 %ID/g
[1]; Tissue biodistribution: Muscle
  tissue uptake at 2 h: 0.09 ± 0.03 %ID/g
  tissue uptake at 6 h: 0.05 ± 0.02 %ID/g
[1]; [3]
  tissue uptake at 6 h: 0.1 ± 0.02 %ID/g
  tissue uptake at 24 h: 0.06 ± 0.01 %ID/g
  tissue uptake at 72 h: 0.05 ± 0.02 %ID/g
  tissue uptake at 168 h: 0.05 ± 0.01 %ID/g
[1]; Tissue biodistribution: Spleen
  tissue uptake at 2 h: 0.78 ± 0.11 %ID/g
  tissue uptake at 72 h: 0.11 ± 0.04 %ID/g
  tissue uptake at 168 h: 0.09 ± 0.03 %ID/g
[1]; Tissue biodistribution: Tumor
  tissue uptake at 2 h: 11.4 ± 2.27 %ID/g
  tissue uptake at 6 h: 12.6 ± 3.23 %ID/g
  tissue uptake at 24 h: 9.84 ± 1.45 %ID/g
  tissue uptake at 72 h: 5.57 ± 0.6 %ID/g
  tissue uptake at 168 h: 0.96 ± 0.5 %ID/g
[2]
  tissue uptake dose at 2 h: 8.53 ± 0.64 %ID
  tissue uptake dose at 6 h: 3.71 ± 1.76 %ID
  tissue uptake dose at 24 h: 4.44 ± 3.53 %ID
  tissue uptake dose at 72 h: 1.03 ± 0.18 %ID
  tissue uptake dose at 168 h: 0.73 ± 0.03 %ID
[2]; Tissue biodistribution: Blood
  tissue uptake at 2 h: 0.38 ± 0.05 %ID/g
  tissue uptake at 6 h: 0.08 ± 0.04 %ID/g
  tissue uptake at 24 h: 0.03 ± 0.01 %ID/g
[2]; Tissue biodistribution: Bone
  tissue uptake at 6 h: 0.2 ± 0.01 %ID/g
[2]; Tissue biodistribution: Gland
  tissue uptake at 2 h: 0.56 ± 0.04 %ID/g
  tissue uptake at 24 h: 0.07 %ID/g
  tissue uptake at 72 h: 0.06 %ID/g
  tissue uptake at 168 h: 0.06 ± 0.01 %ID/g
[2]; Tissue biodistribution: Heart
  tissue uptake at 24 h: 0.06 ± 0.02 %ID/g
  tissue uptake at 72 h: 0.06 ± 0.01 %ID/g
  tissue uptake at 168 h: 0.07 %ID/g
[2]; Tissue biodistribution: Kidney
  tissue uptake at 2 h: 66.9 ± 96.1 %ID/g
  tissue uptake at 6 h: 45.6 ± 37.1 %ID/g
  tissue uptake at 24 h: 3.25 ± 1.04 %ID/g
  tissue uptake at 72 h: 0.96 ± 0.33 %ID/g
[2]; Tissue biodistribution: Liver
  tissue uptake at 2 h: 0.21 ± 0.03 %ID/g
  tissue uptake at 6 h: 0.11 ± 0.04 %ID/g
  tissue uptake at 24 h: 0.07 ± 0.02 %ID/g
  tissue uptake at 72 h: 0.06 ± 0.01 %ID/g
  tissue uptake at 168 h: 0.04 ± 0.01 %ID/g
[2]; Tissue biodistribution: Lung
  tissue uptake at 2 h: 0.91 ± 0.06 %ID/g
  tissue uptake at 24 h: 0.09 ± 0.02 %ID/g
  tissue uptake at 72 h: 0.05 ± 0.01 %ID/g
  tissue uptake at 168 h: 0.05 ± 0.01 %ID/g
[2]; Tissue biodistribution: Muscle
  tissue uptake at 6 h: 0.08 ± 0.02 %ID/g
  tissue uptake at 168 h: 0.03 ± 0.02 %ID/g
[2]; Tissue biodistribution: Spleen
  tissue uptake at 2 h: 0.7 ± 0.21 %ID/g
  tissue uptake at 6 h: 0.36 ± 0.04 %ID/g
[2]; Tissue biodistribution: Tumor
  tissue uptake at 2 h: 30.2 ± 5.26 %ID/g
  tissue uptake at 6 h: 27.4 ± 7.91 %ID/g
  tissue uptake at 24 h: 19.8 ± 4.66 %ID/g
  tissue uptake at 72 h: 11.9 ± 1.2 %ID/g
  tissue uptake at 168 h: 4.74 ± 1.95 %ID/g

— patent US20260176254A1, “INHIBITORS OF PROSTATE SPECIFIC MEMBRANE ANTIGEN AND USE THEREOF” (SHANGHAI SINOTAU BIOTECH. CO., LTD, priority 2023, published 2026)
